Kd data for one molecule are collected here from article PMC8208478, “A Bacteriophage DNA Mimic Protein Employs a Non-specific Strategy to Inhibit the Bacterial RNA Polymerase” (Frontiers in Microbiology, 2021).

As a reminder, the Kd is the constant that tells how readily two partners part at equilibrium. The low end stands for tighter binding, the high end for weaker binding.

In this test the target is T1, His-tagged Gp44, full length (1–237) (bacteriophage SPO1).
T1 construct: Gp44, product of gene 44 of bacteriophage SPO1 of Bacillus subtilis, full length, residues 1-237, 27 kDa; The purified constructs came from pET-46 EK/LIC, which adds an N-terminal His-tag; C-terminal His-tagged and tag-free constructs (pDE2) were also made; PDB 6L6V holds only residues 1-55; also called Gp44^(1–237); recombinant Gp44; not shown: His-tag, N-terminal, kept
Briefly: ITC; MicroCal PEAQ-ITC, 25°C, dialysis buffer; 30 μM β or β′ subunit in the cell, 300 μM Gp44 in the syringe, 19 injections of 2 μL at 120 s intervals. As to conditions: both partners purified.

B1: recombinant RNAP β subunit used in ITC (species not named) (natural protein)
chain: MTGQLVQYGRHRQRRSYARISEVLELPNLIEIQTSSYQWFLDEGLREMFQDISPIEDFTGNLSLEFIDYSLGEPKYPVEESKERDVTYSAPLRVKVRLINKETGEVKDQDVFMGDFPIMTDTGTFIINGAERVIVSQLVRSPSVYFSGKVDKNGKKGFTATVIPNRGAWLEYETDAKDVVYVRIDRTRKLPVTVLLRALGFGSDQEILDLIGENEYLRNTLDKDNTENSDKALLEIYERLRPGEPPTVENAKSLLDSRFFDPKRYDLANVGRYKINKKLHIKNRLFNQRLAETLVDPETGEILAEKGQILDRRTLDKVLPYLENGIGFRKLYPNGGVVEDEVTLQSIKIFAPTDQEGEQVINVIGNAYIEEEIKNITPADIISSISYFFNLLHGVGDTDDIDHLGNRRLRSVGELLQNQFRIGLSRMERVVRERMSIQDTNTITPQQLINIRPVIASIKEFFGSSQLSQFMDQTNPLAELTHKRRLSALGPGGLTRERAGMEVRDVHYSHYGRMCPIETPEGPNIGLINSLSSYAKVNRFGFIETPYRRVDPETGKVTGRIDYLTADEEDNYVVAQANARLDDEGAFIDDSIVARFRGENTVVSRNRVDYMDVSPKQVVSAATACIPFLENDDSNRALMGANMQRQAVPLMQPEAPFVGTGMEYVSGKDSGAAVICKHPGIVERVEAKNVWVRRYEEVDGQKVKGNLDKYSLLKFVRSNQGTCYNQRPIVSVGDEVVKGEILADGPSMELGELALGRNVMVGFMTWDGYNYEDAIIMSERLVKDDVYTSIHIEEYESEARDTKLGPEEITRDIPNVGEDALRNLDDRGIIRIGAEVKDGDLLVGKVTPKGVTELTAEERLLHAIFGEKAREVRDTSLRVPHGGGGIIHDVKVFNREDGDELPPGVNQLVRVYIVQKRKISEGDKMAGRHGNKGVISKILPEEDMPYLPDGTPIDIMLNPLGVPSRMNIGQVLELHMGMAARYLGIHIASPVFDGAREEDVWETLEEAGMSRDAKTVLYDGRTGEPFDNRVSVGIMYMIKLAHMVDDKLHARSTGPYSLVTQQPLGGKAQFGGQRFGEMEVWALEAYGAAYTLQEILTVKSDDVVGRVKTYEAIVKGDNVPEPGVPESFKVLIKELQSLGMDVKILSGDEEEIEMRDLEDEEDAKQADGLALSGDEEPEETASADVERDVVTKE
Consider B1, for which the Kd was 3.46 ± 0.27 µM.
